Measurements from publication PMC4748810, “Structural basis for the endoribonuclease activity of the type III-A CRISPR-associated protein Csm6” (RNA, 2016).
Changes are numbered by the printed parent chain. Numbers in names are those of the source.

B1: Thermus thermophilus Csm6 (enzyme, UniProt Q53W17 1-464, looked up)
chain: MEDLDALWERYREAVRAGGNPQALYQEMVWPALLALWREKPRVYPFPQAFAVSVHTLGTSPEATALAILGAGAERVYVLHTPESARFLPRLRQDTGKDLYPVEIGKSDVEAIYREVKRLLEKHPEVPVALDLTSGTKAMSAGLAAAGFFFQRFYPKVRVVYVDNEDYDPELRRPRAGTEKLRILPNPHEALAEVDALFAKELYGKGEFGQAAAYFRGMVGRTGNQAYALYALLAEMYRAWRALDFGEALKAGRKLLGQLSQNVWLNHPLNARREALEAQVALLEAVDRFLKARDFALKEGVYGLARTLLHLAQEAKEEAAVLAALYAYRALELLLQERLALLGRRAEAPGLSPEEAEALRKALAELLGVLPEEVRLPAKLGLLDLLAFLRLKGDEALGRLSLAELRGLAGALKGRNSALLVHGFDVPSPKAVEGIARLAQGLLQDLEARTALGPLSPEPVPLGF
notes: amplified from genomic DNA; Homodimer in the crystal and in solution; also called TtCsm6; TTHB152; not shown: His6, N-terminal, cleaved
B2: TtCsm6 with Arg415 substituted by alanine (enzyme, Thermus thermophilus, UniProt Q53W17 1-464, looked up)
chain: B1 chain with R415A
notes: also called R415A; not shown: His6, N-terminal, cleaved
B3: TtCsm6 with Glu332 substituted by alanine (enzyme, Thermus thermophilus, UniProt Q53W17 1-464, looked up)
chain: B1 chain with E332A
notes: also called E332A; not shown: His6, N-terminal, cleaved
B4: TtCsm6 with Asn416 substituted by alanine (enzyme, Thermus thermophilus, UniProt Q53W17 1-464, looked up)
chain: B1 chain with N416A
notes: also called N416A; not shown: His6, N-terminal, cleaved
B5: TtCsm6 with His422 substituted by alanine (enzyme, Thermus thermophilus, UniProt Q53W17 1-464, looked up)
chain: B1 chain with H422A
notes: also called H422A; not shown: His6, N-terminal, cleaved

Target: the molecule itself
Experiment: SEC; size-exclusion chromatography of purified proteins (Supplemental Fig. 3); the purification used Superdex 200 (26/600) in 20 mM HEPES 7.5, 500 mM KCl

Stoichiometry N, 2:
B1, B2, B3, B4, B5
